Measurements reported in patent US20240392004A1 (IMMUNOWAKE, published 2024).

T1: human IL-2 receptor (IL-2Rα, IL-2Rβ, IL-2Rγ) (human, UniProt P01589 22-272; P14784 27-551; P31785 23-369)
T1 sequence (looked up) 1: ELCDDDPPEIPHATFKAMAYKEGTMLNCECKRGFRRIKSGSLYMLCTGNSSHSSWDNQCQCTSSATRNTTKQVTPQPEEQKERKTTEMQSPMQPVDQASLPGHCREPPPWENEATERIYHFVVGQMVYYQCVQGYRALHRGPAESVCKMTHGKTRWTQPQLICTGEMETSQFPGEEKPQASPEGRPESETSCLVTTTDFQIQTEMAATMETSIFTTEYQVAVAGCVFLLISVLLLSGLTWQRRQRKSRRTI
T1 sequence (looked up) 2: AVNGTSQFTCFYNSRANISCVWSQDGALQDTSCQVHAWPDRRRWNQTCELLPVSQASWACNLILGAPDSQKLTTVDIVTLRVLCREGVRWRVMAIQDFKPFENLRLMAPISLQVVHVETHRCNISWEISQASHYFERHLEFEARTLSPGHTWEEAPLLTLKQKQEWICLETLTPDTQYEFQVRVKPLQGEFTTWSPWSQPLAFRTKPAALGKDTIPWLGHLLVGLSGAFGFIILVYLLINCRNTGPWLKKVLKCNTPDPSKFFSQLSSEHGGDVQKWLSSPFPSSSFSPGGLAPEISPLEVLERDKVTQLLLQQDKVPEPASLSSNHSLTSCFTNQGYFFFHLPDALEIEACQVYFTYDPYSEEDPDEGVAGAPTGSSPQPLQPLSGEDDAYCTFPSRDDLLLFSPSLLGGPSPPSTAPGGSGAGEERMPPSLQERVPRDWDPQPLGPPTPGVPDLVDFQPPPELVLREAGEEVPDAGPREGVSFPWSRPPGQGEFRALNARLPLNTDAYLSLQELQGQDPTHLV
T1 sequence (looked up) 3: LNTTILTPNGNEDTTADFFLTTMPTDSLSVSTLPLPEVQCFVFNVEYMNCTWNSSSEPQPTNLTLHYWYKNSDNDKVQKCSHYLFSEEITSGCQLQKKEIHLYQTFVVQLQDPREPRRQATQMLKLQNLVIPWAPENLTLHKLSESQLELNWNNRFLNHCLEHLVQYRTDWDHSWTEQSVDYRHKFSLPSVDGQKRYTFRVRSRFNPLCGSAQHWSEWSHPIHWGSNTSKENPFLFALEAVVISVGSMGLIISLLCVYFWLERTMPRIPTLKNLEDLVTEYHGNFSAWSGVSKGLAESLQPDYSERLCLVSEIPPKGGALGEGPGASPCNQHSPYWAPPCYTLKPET

T2: mouse PD-1 (mouse, UniProt Q02242 25-167, limits assumed)
T2 construct: also called mPD-1
T2 sequence (looked up): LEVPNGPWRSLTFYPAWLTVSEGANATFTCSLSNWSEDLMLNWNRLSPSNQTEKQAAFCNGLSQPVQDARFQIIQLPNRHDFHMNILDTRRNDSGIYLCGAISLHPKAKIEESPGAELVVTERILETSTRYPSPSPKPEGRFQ


Assays:
[1] = target: human PD-1 on cells (HEK-PD-1 reporter cells; activated PBMC) (human, UniProt Q15116 25-288); assay: cell-based or functional assay
[2] = target: human IL-12 receptor complex (IL-12Rβ1 and IL-12Rβ2) (human, UniProt P42701 24-662; Q99665 24-862); assay: cell-based or functional assay
[3] = target: T1, human IL-2 receptor (IL-2Rα, IL-2Rβ, …); assay: cell-based or functional assay
human PD-1 [4] = target: T3, human PD-1 (human, UniProt Q15116 25-167, limits assumed); assay: rounded restatement of Tables 14 and 15
T3 construct: also called hPD-1

mouse PD-1 [5] = target: T2, mouse PD-1; assay: rounded restatement of Tables 14 and 15
mouse PD-1 [6] = target: T2, mouse PD-1; assay: same value as Table 14 (measured in PD-L1-Fc format)
human PD-1 [7] = target: T3, human PD-1; assay: PD-L2-Fc format, method not stated
mouse PD-1 [8] = target: T2, mouse PD-1; assay: PD-L2-Fc format, method not stated
mouse PD-1 [9] = target: T2, mouse PD-1; assay: same value as Table 15 (measured in PD-L2-Fc format)

T3 sequence (Q15116 25-167 limits assumed): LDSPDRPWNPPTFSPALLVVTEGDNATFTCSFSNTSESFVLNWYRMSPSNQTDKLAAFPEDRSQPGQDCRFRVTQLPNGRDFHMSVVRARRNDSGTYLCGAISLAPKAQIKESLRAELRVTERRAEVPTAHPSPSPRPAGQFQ
Chain of human PD-1 on cells (HEK-PD-1 reporter cells; activated PBMC) (Q15116 25-288): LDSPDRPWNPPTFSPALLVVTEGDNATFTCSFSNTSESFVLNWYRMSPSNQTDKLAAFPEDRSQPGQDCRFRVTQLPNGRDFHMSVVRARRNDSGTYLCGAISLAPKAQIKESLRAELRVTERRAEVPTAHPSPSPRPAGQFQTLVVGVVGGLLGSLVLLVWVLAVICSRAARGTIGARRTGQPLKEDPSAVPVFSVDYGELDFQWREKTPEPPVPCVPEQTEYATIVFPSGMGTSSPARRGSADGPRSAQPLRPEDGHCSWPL
Chain of human IL-12 receptor complex (IL-12Rβ1 and IL-12Rβ2) (Q99665 24-862, chain 2 of 2, other chains not shown): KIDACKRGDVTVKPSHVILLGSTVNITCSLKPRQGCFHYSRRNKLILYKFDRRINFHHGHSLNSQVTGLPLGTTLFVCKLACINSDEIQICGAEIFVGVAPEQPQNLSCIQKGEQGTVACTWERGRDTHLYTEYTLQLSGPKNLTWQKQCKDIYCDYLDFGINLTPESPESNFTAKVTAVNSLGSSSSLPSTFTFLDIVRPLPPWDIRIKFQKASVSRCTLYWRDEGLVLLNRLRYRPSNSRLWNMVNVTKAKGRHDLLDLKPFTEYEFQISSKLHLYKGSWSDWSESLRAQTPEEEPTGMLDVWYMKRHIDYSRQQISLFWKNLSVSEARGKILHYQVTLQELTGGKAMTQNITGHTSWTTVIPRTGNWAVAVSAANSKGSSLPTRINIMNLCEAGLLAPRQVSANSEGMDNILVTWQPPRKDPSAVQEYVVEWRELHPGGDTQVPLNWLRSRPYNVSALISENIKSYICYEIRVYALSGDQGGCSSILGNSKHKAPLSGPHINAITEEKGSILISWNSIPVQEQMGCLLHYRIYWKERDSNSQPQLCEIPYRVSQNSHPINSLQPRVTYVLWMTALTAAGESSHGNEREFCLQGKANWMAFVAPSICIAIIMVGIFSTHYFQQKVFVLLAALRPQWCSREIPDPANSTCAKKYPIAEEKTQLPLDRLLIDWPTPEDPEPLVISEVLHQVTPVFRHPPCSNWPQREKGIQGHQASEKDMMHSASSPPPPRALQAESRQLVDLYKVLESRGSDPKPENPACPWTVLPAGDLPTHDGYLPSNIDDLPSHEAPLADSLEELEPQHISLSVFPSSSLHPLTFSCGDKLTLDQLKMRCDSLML

Row | IL-2 signal transduction, HEK-IL-2-PD-1 [1] | IL-12 signal transduction, HEK-IL-12-PD-1 [1] | IL-12 signal transduction, HEK-IL-12 [2] | IL-2 signal transduction, HEK-IL-2 [3] | Kd (human PD-1 [4]) | Kd (mouse PD-1 [5]) | Kd (mouse PD-1 [6]) | Kd (human PD-1 [7]) | Kd (mouse PD-1 [8]) | Kd (mouse PD-1 [9]) | Binder
1 | < 0.1% | 24% | < 0.2% | < 0.1% | ~100 nM | ~100 nM | 120 nM | – | – | – | IL-12(E59A/F60A)/PD-L1(mut2)-Fc (IL-12 at hinge) (Fc fusion, also called IL-12(E59A/F60A)/PD-L1(I54Q/E58M/R113T/M115L/S117A/G119K)-Fc) chain 1: FTVTVPKDLYVVEYGSNMTIECKFPVEKQLDLAALQVYWMMEDKNIIQFVHGEEDLKVQHSSYRQRARLLKDQLSLGNAALQITDVKLQDAGVYTCLIAYKGADYKRITVKVNAPYNKINQRILVVDPVTSEHELTCQAEGYPKAEVIWTSSDHQVLSGKTTTTNSKREEKLFNVTSTLRINTTTNEIFYCTFRRLDPEENHTAELVIPELPLAHPPNERGGGGSGGGIWELKKDVYVVELDWYPDAPGEMVVLTCDTPEEDGITWTLDQSSEVLGSGKTLTIQVKAAGDAGQYTCHKGGEVLSHSLLLLHKKEDGIWSTDILKDQKEPKNKTFLRCEAKNYSGRFTCWWLTTISTDLTFSVKSSRGSSDPQGVTCGAATLSAERVRGDNKEYEYSVECQEDSACPAAEESLPIEVMVDAVHKLKYENYTSSFFIRDIIKPDPPKNLQLKPLKNSRQVEVSWEYPDTWSTPHSYFSLTFCVQVQGKSKREKKDRVFTDKTSATVICRKNASISVRAQDRYYSSSWSEWASVPCSGGGGSGGGSGGGGSRNLPVATPDPGMFPCLHHSQNLLRAVSNMLQKARQTLEFYPCTSEEIDHEDITKDKTSTVEACLPLELTKNESCLNSRETSFITNGSCLASRKTSFMMALCLSSIYEDLKMYQVEFKTMNAKLLMDPKRQIFLDQNMLAVIDELMQALNFNSETVPQKSSLEEPDFYKTKIKLCILLHAFRIRAVTIDRVMSYLNASGGGGSGGGDKTHTCPPCPAPEDEGGPSVFLFPPKPKDTLMISRTPEVTCVVVDVSHEDPEVKFNWYVDGVEVHNAKTKPREEQYNSTYRVVSVLTVLHQDWLNGKEYKCKVSNKALPAPIEKTISKAKGQPREPQVYVYPPSREEMTKNQVSLTCLVKGFYPSDIAVEWESNGQPENNYKTTPPVLDEDGSFALVSKLTVDKSRWQQGNVFSCSVMHEALHNHYTQKSLSLSPGK chain 2: FTVTVPKDLYVVEYGSNMTIECKFPVEKQLDLAALQVYWMMEDKNIIQFVHGEEDLKVQHSSYRQRARLLKDQLSLGNAALQITDVKLQDAGVYTCLIAYKGADYKRITVKVNAPYNKINQRILVVDPVTSEHELTCQAEGYPKAEVIWTSSDHQVLSGKTTTTNSKREEKLFNVTSTLRINTTTNEIFYCTFRRLDPEENHTAELVIPELPLAHPPNERGGGGSGGGDKTHTCPPCPAPEKKGGPSVFLFPPKPKDTLMISRTPEVTCVVVDVSHEDPEVKFNWYVDGVEVHNAKTKPREEQYNSTYRVVSVLTVLHQDWLNGKEYKCKVSNKALPAPIEKTISKAKGQPREPQVYVLPPSREEMTKNQVSLLCLVKGFYPSDIAVEWESNGQPENRYMTWPPVLDSDGSFFLYSKLTVDKSRWQQGNVFSCSVMHEALHNHYTQKSLSLSPGK
2 | – | – | – | – | – | – | – | 1200 nM | 980 nM | – | PD-L2(wt)-Fc (heterodimer) (Fc fusion) chain 1: LFTVTVPKELYIIEHGSNVTLECNFDTGSHVNLGAITASLQKVENDTSPHRERATLLEEQLPLGKASFHIPQVQVRDEGQYQCIIIYGVAWDYKYLTLKVKASYRKINTHILKVPETDEVELTCQATGYPLAEVSWPNVSVPANTSHSRTPEGLYQVTSVLRLKPPPGRNFSCVFWNTHVRELTLASIDLQSQMEPRTHPTDKTHTCPPCPAPEDEGGPSVFLFPPKPKDTLMISRTPEVTCVVVDVSHEDPEVKFNWYVDGVEVHNAKTKPREEQYNSTYRVVSVLTVLHQDWLNGKEYKCKVSNKALPAPIEKTISKAKGQPREPQVYVYPPSREEMTKNQVSLTCLVKGFYPSDIAVEWESNGQPENNYKTTPPVLDEDGSFALVSKLTVDKSRWQQGNVFSCSVMHEALHNHYTQKSLSLSPGK chain 2: LFTVTVPKELYIIEHGSNVTLECNFDTGSHVNLGAITASLQKVENDTSPHRERATLLEEQLPLGKASFHIPQVQVRDEGQYQCIIIYGVAWDYKYLTLKVKASYRKINTHILKVPETDEVELTCQATGYPLAEVSWPNVSVPANTSHSRTPEGLYQVTSVLRLKPPPGRNFSCVFWNTHVRELTLASIDLQSQMEPRTHPTDKTHTCPPCPAPEKKGGPSVFLFPPKPKDTLMISRTPEVTCVVVDVSHEDPEVKFNWYVDGVEVHNAKTKPREEQYNSTYRVVSVLTVLHQDWLNGKEYKCKVSNKALPAPIEKTISKAKGQPREPQVYVLPPSREEMTKNQVSLLCLVKGFYPSDIAVEWESNGQPENRYMTWPPVLDSDGSFFLYSKLTVDKSRWQQGNVFSCSVMHEALHNHYTQKSLSLSPGK
3 | – | – | – | – | ~100 nM | ~100 nM | – | – | – | 230 nM | IL-12(E59A/F60A)/PD-L2(S58V)-Fc (IL-12 at hinge) (Fc fusion, also called IL-12(E59A/F60A)/PD-L2(mut2)-Fc) chain 1: LFTVTVPKELYIIEHGSNVTLECNFDTGSHVNLGAITAVLQKVENDTSPHRERATLLEEQLPLGKASFHIPQVQVRDEGQYQCIIIYGVAWDYKYLTLKVKASYRKINTHILKVPETDEVELTCQATGYPLAEVSWPNVSVPANTSHSRTPEGLYQVTSVLRLKPPPGRNFSCVFWNTHVRELTLASIDLQSQMEPRTHPTGGGGSGGGIWELKKDVYVVELDWYPDAPGEMVVLTCDTPEEDGITWTLDQSSEVLGSGKTLTIQVKAAGDAGQYTCHKGGEVLSHSLLLLHKKEDGIWSTDILKDQKEPKNKTFLRCEAKNYSGRFTCWWLTTISTDLTFSVKSSRGSSDPQGVTCGAATLSAERVRGDNKEYEYSVECQEDSACPAAEESLPIEVMVDAVHKLKYENYTSSFFIRDIIKPDPPKNLQLKPLKNSRQVEVSWEYPDTWSTPHSYFSLTFCVQVQGKSKREKKDRVFTDKTSATVICRKNASISVRAQDRYYSSSWSEWASVPCSGGGGSGGGSGGGGSRNLPVATPDPGMFPCLHHSQNLLRAVSNMLQKARQTLEFYPCTSEEIDHEDITKDKTSTVEACLPLELTKNESCLNSRETSFITNGSCLASRKTSFMMALCLSSIYEDLKMYQVEFKTMNAKLLMDPKRQIFLDQNMLAVIDELMQALNFNSETVPQKSSLEEPDFYKTKIKLCILLHAFRIRAVTIDRVMSYLNASGGGGSGGGDKTHTCPPCPAPEDEGGPSVFLFPPKPKDTLMISRTPEVTCVVVDVSHEDPEVKFNWYVDGVEVHNAKTKPREEQYNSTYRVVSVLTVLHQDWLNGKEYKCKVSNKALPAPIEKTISKAKGQPREPQVYVYPPSREEMTKNQVSLTCLVKGFYPSDIAVEWESNGQPENNYKTTPPVLDEDGSFALVSKLTVDKSRWQQGNVFSCSVMHEALHNHYTQKSLSLSPGK chain 2: LFTVTVPKELYIIEHGSNVTLECNFDTGSHVNLGAITAVLQKVENDTSPHRERATLLEEQLPLGKASFHIPQVQVRDEGQYQCIIIYGVAWDYKYLTLKVKASYRKINTHILKVPETDEVELTCQATGYPLAEVSWPNVSVPANTSHSRTPEGLYQVTSVLRLKPPPGRNFSCVFWNTHVRELTLASIDLQSQMEPRTHPTGGGGSGGGDKTHTCPPCPAPEKKGGPSVFLFPPKPKDTLMISRTPEVTCVVVDVSHEDPEVKFNWYVDGVEVHNAKTKPREEQYNSTYRVVSVLTVLHQDWLNGKEYKCKVSNKALPAPIEKTISKAKGQPREPQVYVLPPSREEMTKNQVSLLCLVKGFYPSDIAVEWESNGQPENRYMTWPPVLDSDGSFFLYSKLTVDKSRWQQGNVFSCSVMHEALHNHYTQKSLSLSPGK
